Assay results reported in US20220074941A1, “HSP90 COMBINATION THERAPY” (Sloan-Kettering Institute for Cancer Research, priority 2011, published 2022).

B1: PHB (protein, UniProt P35232 2-272, looked up)
Prohibitin 1: AAKVFESIGKFGLALAVAGGVVNSALYNVDAGHRAVIFDRFRGVQDIVVGEGTHFLIPWVQKPIIFDCRSRPRNVPVITGSKDLQNVNITLRILFRPVASQLPRIFTSIGEDYDERVLPSITTEILKSVVARFDAGELITQRELVSRQVSDDLTERAATFGLILDDVSLTHLTFGKEFTEAVEAKQVAQQEAERARFVVEKAEQQKKAAIISAEGDSKAAELIANSLATAGDGLIELRKLEAAEDIAYQLSRSRNITYLPAGQSVLLQLPQ
B2: SDPR (protein, UniProt O95810 2-425, looked up)
Caveolae-associated protein 2: GEDAAQAEKFQHPGSDMRQEKPSSPSPMPSSTPSPSLNLGNTEEAIRDNSQVNAVTVLTLLDKLVNMLDAVQENQHKMEQRQISLEGSVKGIQNDLTKLSKYQASTSNTVSKLLEKSRKVSAHTRAVKERMDRQCAQVKRLENNHAQLLRRNHFKVLIFQEENEIPASVFVKQPVSGAVEGKEELPDENKSLEETLHTVDLSSDDDLPHDEEALEDSAEEKVEESRAEKIKRSSLKKVDSLKKAFSRQNIEKKMNKLGTKIVSVERREKIKKSLTSNHQKISSGKSSPFKVSPLTFGRKKVREGESHAENETKSEDLPSSEQMPNDQEEESFAEGHSEASLASALVEGEIAEEAAEKATSRGSNSGMDSNIDLTIVEDEEEESVALEQAQKVRYEGSYALTSEEAERSDGDPVQPAVLQVHQTS
B3: STRN (protein, UniProt O43815 1-780, looked up)
Striatin: MDEQAGPGVFFSNNHPGAGGAKGLGPLAEAAAAGDGAAAAGAARAQYSLPGILHFLQHEWARFEVERAQWEVERAELQAQIAFLQGERKGQENLKKDLVRRIKMLEYALKQERAKYHKLKYGTELNQGDMKPPSYDSDEGNETEVQPQQNSQLMWKQGRQLLRQYLQEVGYTDTILDVKSKRVRALLGFSSDVTDREDDKNQDSVVNGTEAEVKETAMIAKSELTDSASVLDNFKFLESAAADFSDEDEDDDVDGREKSVIDTSTIVRKKALPDSGEDRDTKEALKEFDFLVTSEEGDNESRSAGDGTDWEKEDQCLMPEAWNVDQGVITKLKEQYKKERKGKKGVKRPNRSKLQDMLANLRDVDELPSLQPSVGSPSRPSSSRLPEHEINRADEVEALTFPPSSGKSFIMGADEALESELGLGELAGLTVANEADSLTYDIANNKDALRKTWNPKFTLRSHFDGIRALAFHPIEPVLITASEDHTLKMWNLQKTAPAKKSTSLDVEPIYTFRAHKGPVLCVVMSSNGEQCYSGGTDGLIQGWNTTNPNIDPYDSYDPSVLRGPLLGHTDAVWGLAYSAAHQRLLSCSADGTLRLWNTTEVAPALSVFNDTKELGIPASVDLVSSDPSHMVASFSKGYTSIFNMETQQRILTLESNVDTTANSSCQINRVISHPTLPISITAHEDRHIKFYDNNTGKLIHSMVAHLEAVTSLAVDPNGLYLMSGSHDCSIRLWNLESKTCIQEFTAHRKKFEESIHDVAFHPSKCYIASAGADALAKVFV
B4: PLBD1 (protein, UniProt Q6P4A8 39-553, looked up)
Phospholipase B-like 1: GVYYATAYWMPAEKTVQVKNVMDKNGDAYGFYNNSVKTTGWGILEIRAGYGSQTLSNEIIMFVAGFLEGYLTAPHMNDHYTNLYPQLITKPSIMDKVQDFMEKQDKWTRKNIKEYKTDSFWRHTGYVMAQIDGLYVGAKKRAILEGTKPMTLFQIQFLNSVGDLLDLIPSLSPTKNGSLKVFKRWDMGHCSALIKVLPGFENILFAHSSWYTYAAMLRIYKHWDFNVIDKDTSSSRLSFSSYPGFLESLDDFYILSSGLILLQTTNSVFNKTLLKQVIPETLLSWQRVRVANMMADSGKRWADIFSKYNSGTYNNQYMVLDLKKVKLNHSLDKGTLYIVEQIPTYVEYSEQTDVLRKGYWPSYNVPFHEKIYNWSGYPLLVQKLGLDYSYDLAPRAKIFRRDQGKVTDTASMKYIMRYNNYKKDPYSRGDPCNTICCREDLNSPNPSPGGCYDTKVADIYLASQYTSYAISGPTVQGGLPVFRWDRFNKTLHQGMPEVYNFDFITMKPILKLDIK
B5: CSDE1 (protein, UniProt O75534 1-798, looked up)
Cold shock domain-containing …: MSFDPNLLHNNGHNGYPNGTSAALRETGVIEKLLTSYGFIQCSERQARLFFHCSQYNGNLQDLKVGDDVEFEVSSDRRTGKPIAVKLVKIKQEILPEERMNGQVVCAVPHNLESKSPAAPGQSPTGSVCYERNGEVFYLTYTPEDVEGNVQLETGDKINFVIDNNKHTGAVSARNIMLLKKKQARCQGVVCAMKEAFGFIERGDVVKEIFFHYSEFKGDLETLQPGDDVEFTIKDRNGKEVATDVRLLPQGTVIFEDISIEHFEGTVTKVIPKVPSKNQNDPLPGRIKVDFVIPKELPFGDKDTKSKVTLLEGDHVRFNISTDRRDKLERATNIEVLSNTFQFTNEAREMGVIAAMRDGFGFIKCVDRDVRMFFHFSEILDGNQLHIADEVEFTVVPDMLSAQRNHAIRIKKLPKGTVSFHSHSDHRFLGTVEKEATFSNPKTTSPNKGKEKEAEDGIIAYDDCGVKLTIAFQAKDVEGSTSPQIGDKVEFSISDKQRPGQQVATCVRLLGRNSNSKRLLGYVATLKDNFGFIETANHDKEIFFHYSEFSGDVDSLELGDMVEYSLSKGKGNKVSAEKVNKTHSVNGITEEADPTIYSGKVIRPLRSVDPTQTEYQGMIEIVEEGDMKGEVYPFGIVGMANKGDCLQKGESVKFQLCVLGQNAQTMAYNITPLRRATVECVKDQFGFINYEVGDSKKLFFHVKEVQDGIELQAGDEVEFSVILNQRTGKCSACNVWRVCEGPKAVAAPRPDRLVNRLKNITLDDASAPRLMVLRQPRGPDNSMGFGAERKIRQAGVID
B6: PTPLAD1 (protein, UniProt Q9P035 1-362, looked up)
Very-long-chain …: MENQVLTPHVYWAQRHRELYLRVELSDVQNPAISITENVLHFKAQGHGAKGDNVYEFHLEFLDLVKPEPVYKLTQRQVNITVQKKVSQWWERLTKQEKRPLFLAPDFDRWLDESDAEMELRAKEEERLNKLRLESEGSPETLTNLRKGYLFMYNLVQFLGFSWIFVNLTVRFCILGKESFYDTFHTVADMMYFCQMLAVVETINAAIGVTTSPVLPSLIQLLGRNFILFIIFGTMEEMQNKAVVFFVFYLWSAIEIFRYSFYMLTCIDMDWKVLTWLRYTLWIPLYPLGCLAEAVSVIQSIPIFNETGRFSFTLPYPVKIKVRFSFFLQIYLIMIFLGLYINFRHLYKQRRRRYGQKKKKIH
B7: GPS2 (protein, UniProt Q13227 1-327, looked up)
G protein pathway suppressor 2: MPALLERPKLSNAMARALHRHIMMERERKRQEEEEVDKMMEQKMKEEQERRKKKEMEERMSLEETKEQILKLEEKLLALQEEKHQLFLQLKKVLHEEEKRRRKEQSDLTTLTSAAYQQSLTVHTGTHLLSMQGSPGGHNRPGTLMAADRAKQMFGPQVLTTRHYVGSAAAFAGTPEHGQFQGSPGGAYGTAQPPPHYGPTQPAYSPSQQLRAPSAFPAVQYLSQPQPQPYAVHGHFQPTQTGFLQPGGALSLQKQMEHANQQTGFSDSSSLRPMHPQALHPAPGLLASPQLPVQMQPAGKSGFAATSQPGPRLPFIQHSQNPRFYHK

Key:
[1] = test system: Hsp90 complexes in K562 cell extract; assay: Nano-LC-MS/MS of PU-beads pull-downs; format: binding; settings: protein identified in PU-beads pull-down of K562 cell extract, QSTAR-Elite QTof MS
How it was run: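 Lysates pre-cleared overnight at 4 °C with control beads, then pulled down with PU-beads or control beads; eluted proteins (2% SDS boil) gel-separated and analysed by nano LC-MS/MS on a QTof. Mascot identification (p<0.05), spectral counts and sequence coverage evaluated in Scaffold.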

[2] = test system: Hsp90 complexes in Mia-PaCa-2 cell extract; assay: Nano-LC-MS/MS of PU-beads pull-downs; format: binding, human; settings: protein identified in PU-beads pull-down of Mia-PaCa-2 cell extract; QSTAR-Elite QTof MS
How it was run: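 Lysates pre-cleared overnight at 4 °C with control beads underwent PU-bead pull-down; bound proteins were SDS-eluted, gel-separated, digested and analyzed by nano-LC-MS/MS on a QTof. Identifications used significance p<0.05, 0.4 Da tolerances and one missed cleavage; unique peptide (spectral) counts and sequence coverage were reported.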

| Molecule | Number of Assigned Spectra, K562 Prep 1 [1] | Number of Assigned Spectra, K562 Prep 2 [1] | Number of Assigned Spectra, Mia-Paca 2 [2] |
| --- | --- | --- | --- |
| B1 | 5 | 0 | 0 |
| B2 | 0 | 0 | 4 |
| B3 | 5 | 1 | 0 |
| B4 | 0 | 0 | 2 |
| B5 | 4 | 0 | 0 |
| B6 | 2 | 0 | 0 |
| B7 | 5 | 0 | 0 |
